Assay: soluble on expression in E. coli; label from the status in PepcDB or PDB records

Soluble on expression in E. coli, not soluble:
MGSDKIHHHHHHMGKFDQITYFIAVVEEHGFAAAARKFGVSTAAVSRQIARLEAELKAELLVRTTRKLSLTDIGARYYQQCKKTLLELNEAEIAIANSRNEAVGILNVTSSRYFAMRFLLPYLPEFMELNPKLQIKIELAERFPDLAQENVDVLFGVSMEGPPELVRKRVSTTRYVLCASPDYLAKNGIPKTPSELGKHRYITHSMRNPDNLVTFKDNEQIYVEPVLWLNDSRALCECALLGMGIIKLHEYIVTEALQDGRLIEVLPEFQESSLSVYLYYQASRYLQPKIRRFIDFFTK
MGSDKIHHHHHHMGKTIAIMQPYFLPYIGYWQLMKASDIFVVYDNIKYTKKGWVNRNRYLSNGKIKLFSIPLMKASNSLQIKDRYLAETYKLESAKTLRKIKDAYAVSKNFHPCFNLIERCFNANENNLFEFIYNSVAIFKDVLGLRAQLVVSSSIACDHSLNSAERVKAICTELGAESYINPVGGEHLYERDDFQKLGINLRFLKPRIEEYPQLSCQFQPYMSILDICMSCTFDEVKNNII
MGSDKIHHHHHHMGKYQDSKKVVRNYFEALENATGDEVENVLKQHMKSDYNWKGVYPFREQEGTENVADVFWKPLKKSLSNMQRRQDIFIAGTNEIDNSEWVMSMGHFMGLFDNDWLGIKHTRKMISLRYAEFNCVQDGKIAKTGLFVDIIGFMIQAGVNPLPPQTGSYFVYPGPIDHNGLLFEDADEVEGVKTLALVNKMVDDLSELNESGAMGCPPEILEKSWAKDMIWYGPGGIGASYTIPRYQEQHQLPFRNNLKGKTFNGHVCRFAEGNFACFFGWPNLTNVPCGGFLGLPGGEVKADMQVVDVYYRKGDKLQENWVLIDIPYWLKQQGLDILERTKSIFNA
MGSDKIHHHHHHMGLMDFRPYFRVTVDGKDISGVLAPRLVSLRVTDGAGVQSDTVEIRLSDTNLFQRISEPRAGAEIEVWLGFPLSLSYMGLFVADTIETGGPPDTVTITGTASVNGETTSGKTALTDQKKRSWPEGTTIGAMVEKIASEHGLIAMVSESLRAEALPHIDQIDESDINLLSRIARDFDAIAKPGNGRLIMTRRGESLTASGQPLPVVRVDKSSVTEWRYRNSLRERVGRVIATTQDLEAGQPVEVEAGQGEPALRLRRRFPDKVTARKTAESELKRLGRAGRSLSITMPGNSDIVAEARLSASGFRSYIDGEWLVSRATHILDSGGYRTAITAEPVE
MGSDKIHHHHHHMGPINFEKAKKEREQAVIARLIDIRKAQQEYRSLHHGMYTEHFDTLIDFVKNQKLPFVMKVGQLTDDQLESGLTEKKAMAIINKAKKTGKYDEVKKNGLENFKRDTMWVAVMDTIYPKGFNADSMKYIPYGNGAIFEMNVKNDTAKSGAPVYLFEVKAPYETYLGGLDRQEIINLKDLNEKLGRYSGLMVGSIDNPNNGAGNWE
MGSDKIHHHHHHMGPLSGITILDLTSVLMGPYATQTLADMGADVVKVESPEGDIVRHIGPGRTPGMGGMFLNTNRGKRSIVIDLKQNDGREALLRLAARANALIYNVRPQAMARLGLSYEQVAAVNPGIVYLGAFGYGQDGPYAAKPAYDDLIQGAAGVPTLLAAAGDGTPRYVPITIADRIVGLMAVNAMLGALMHQQRTGEGQRIDVPMFESMASFVLVDHLGGLTYEPPLDHGGYARLLSRSRKPYRTSDGYLCVLIYNDKQWRSFFEAIDRTDFLAQPRFANHAARTRHIDEIYEEIGAIFLTRTTAEWRELLERADIPVMPMHSMESILDDPHLRAVGFFETVEHPVEGRVRQMKVPSTWSATQPQPGGPAPTLGGNGRDILTEAGFSSAEIERLGHSKAVHLPD
MGSDKIHHHHHHMGQSSEDAAMTLQPFDGFGLGLRPPHYRAFLDSERPLVDFVEVISENFMVGGGRPLHVIDAVRERYPVALHGVSMSVGSADGVKLDYLRRLKGLADRVDPMWVSDHLCWTGVEGFNSHDLLPVPYTEEAMAVVCANIALAQDVLERPLLLENPSSYVTFANDAMAEHQFLAEMCARTGCYLLLDINNIYVSASNHGFDPYEYLAAVPVDRVLQIHLAGHSQGRELLIDTHDQPVPDSVWALYEAAAGRFGPVAAMIERDDDIPPLDDLLAELDVARARWAAGRRGSLAA
MGSDKIHHHHHHMGVSHGYVIWPLGSVHLISAIHPDILEKLMTKTLLLYSTVDGQTLAICQRMQTVMTQAGEQVELLSLNDCSGDALTQVDRVLIGASIRYGKHRPELLSFTNTHQDLLNSKMNGFFTVNVVARKPEKNTPATNPYMIKFLQLSAWQPKVLGVFAGKIAYPKYGPFDRFMIRFIMWMTKGPTDTKGTFEFTDWNKVDEFAGSFVKQ
MGSDKIHHHHHHMHEAVARMLAKYEPKSVDDSVRALREIIQEVALLGLWRSKFFEHAAFYGGTALRILYGLDRFSENLDFSLLEPSPDFNLARYTASLEEELSAFGFNVRVEMVGKAVESAVQSAFLKANTRNELLVIETGGELAGQVAAGQVLKVKIEVDTDPPTGFTTSTRYLLQPIPFAVRSYSLPDLFAGKMHALLFRRWKNRVKGRDWYDFVWYAANHPQLNLAHLEQRMRQTGHWSGDLPLSAAAFRELLSDSIDRLDVDQARNDVAPFVKDQQALALWSHDFFRDVARRVQTDEG
MGSDKIHHHHHHMHEDKNDIFESIDTEDFDNKTEEECLELVRKNGLNLIYIKNQTEEICLEAVRQNCNAIKCVQNQTEKICIEAVKQDWRMLEFVEEPTEEICMLAINQDGTALKYIENQTEELCLRAVEKNGAALEYVKEQTEEICIEAVRNSEFGLARVKNQTEKICMEAVKHCSYNLKWVENQTEEICMEAVRQNGLDLKFVKNQTETICLRAVRQNGMALEFVKEQTVGICLKAVRQYGMALKFVKEQTEEICTEAIKQDKRALSFVKGDKEKYKALYDNNEPFAKRYVRNVIEKENRALIKKGEENAKIKIAGKLYDRGMSFEDISDIVEIEISKLKVSLGVF
MGSDKIHHHHHHMHIAPHDNQNKPIVDAEHDLVPLNYFNIVKLRRGEVFEYAVPGYETCVVPATGTVDIDVEGAIYPDLGNRTEDVWDGEPEGVYVPVGAKVRITCKTDVTETFIAGAKYDKVLEPFDVRADALDVVQYGSDDTKTHRKIKHILGANHHDKVGRLLVSELYTVGEGGWSGFPSHKHDTDRLPDETRHDETYNFRFKPNYGSGVQMLQREDNQPGDAYHIMDGSTVLIDKGYHPCAVLPGYQMYYFTILGGLSQRSLKQYFQPTHAEQLHTIPGIMDMVAKFK
MGSDKIHHHHHHMHMAAKRGRTAQRLELGLQLRQLRENCDGGDRGVGLTRKQAVQGLRISEASLQRIETGSLNFRFVGDLRKLLTKYGVTDEDVVDSLISLNRESNQQDWLTQYRGLMPSGMPGFVGLEPEAHAMKAYHPTLVYGLLQTERYARAVHEVQKPIEEYTTEFIRSSVELRMKRQEVLTRESPVKLHVILGEAALRYPIGGAEVMREQCARIEELSGWDHITVQVLPFRPSYRSINDFAILDFGNNLPPRVQADSAWGSVSTSDKPREVDRFSRRFDTMTASALPPEDTPEFLHRLEREL
MGSDKIHHHHHHMHQDTVRGKAFAMPLISPAYPAGPYRFRNREYLIITYRTDPQKLRDLVPEPLQVCEPMVKFEFIRMPDSTGFGDYTEGGQVIPVSFYGRRGSYTHCMFLDDHPPIAGGRELWGFPKKLASPTLRTETDTLVGTLDYGPVRVATGTMGYKHRAADLASVRASLAEPNFLLKIIPHVDGTPRICELVEYHLEDVHLRGAWTGPAALNLWSHALAPVAELPVLEVVSAVHLVADLTLALGKVVHDYLAKA
MGSDKIHHHHHHMHRFKYDHPLDDGVRRRVMEELAALERRHHVRVLYACESGSRAWGFASPDSDYDVRFLYVHRPQWYLQVEPQRDVIELPLDDELDISGWELRKALQLLNRSNPTMFEWLQSPLVYRADEKAAAALRELMADFHSLGRCRWHYLSMARKNHRVHLQGETVRLKKYLYVLRPLLAVRWLDAGKGLPPMRFADLAAATVEDDGLAAEINHLLAIKMAAGEAQLGGRLPKLDAFIASMLAEPVPPLPGRHDGDVRRLDRLLQEWVMGSVREDGSAACEI
MGSDKIHHHHHHMHSMALPESSYERLRAADCADEIAYVRACLRLYFSGAAAAAGDVSMPNLSAAAVADIARLNKVATFVLKVLSRAPVGERPAELFQWLDTYRRRTVSMNAACLMDSMVIHQALRDRQIDFVFLKGPFQQHLLYDDHFMKPSGDVDILVSPAGFSRARDALRSIGYEVSGKSRSVWWVRFLGEQHMIRGNGPSTVDLHYRLQQPGSPSPRDADGFLRRKRLVEITGTEVPFTSAADTLMLSCISVAKALFNHEPCAGYVCDIRASANRLGEADQQRVLDAAVSQGLDDTLLLGLRAADVLLGATGTLLSERAKPILSRIGNEDLLNMVIAPWLSSLRWPQRRTVLWELCGRAPVRYLAEAAWAASADISRRIFERPASP
MGSDKIHHHHHHMHTCPRCDSKKGEVMSKSPVEGAWEVYQCQTCFFTWRSCEPESITNPEKYNPAFKIDPKETETAIEVPAVPEPKGLIRVNCMSDRLFELLDGSCLNEKQHEAFVLQTVSEDGWPHAAMISAGEIIALSRTDIRIALWKNTMTSANILRTGKAQFTAWWKGAAYYVKLECAPLPPLKDAEYERDRFSCRIVSVKEDVAKYADLTSGVRIQLHSPEEVLSRWKKTLEDLKR
MGSDKIHHHHHHMHVIVKNRYTQEIIHFFLENCRTESLRRSSIYAADFLYGKDQGFFIELRERISNYLDRNVDRISIEIASETGKPFKYIREEILQTIREIKSIRIPEDLHEFVKPGVSALNYNCNDPVLSLFVPLFATILQGSPVLVFANPYNFVSAHIIISMLSEIGLPEGVVNVIPFKPNFNYAYLYGENFSYFQDTYDGLGINRIIQSERHKPATVLWGDIDPDSAVSEFTKRLVRMPFSNEQLLVVDRRMFEYVLNRLKEELSRIVVGDPADGATDLGPVTKDEDLMEALSIVGKYRVERLLAMFRGVEGNLMKPAIILTDDVVKDPFVHAPLVYLVNSASVEDAVNLINEVEADRCALFSDDSKLLKMLYGRTACKEISFNSYMYKDYLFKPFLVKRKILM
MGSDKIHHHHHHMIASKSKQLVYNGRFTTQKTTGVQRVARELIAALIKFQPQDPVTVLVPPRPGVAVSGAKTVEVGFYKGVVWEQLILPLFARRGRIVNLGNSASIFLGNQIIYMHDAAVFDTPAHFSRPFRVWYRIMFWILARTSVCVLTNSRFSRDRLAHHCGVSAEKIRVVPLGADHLDALEPDTSVLDKHALTPDRFVLAVSSMNPTKNFGRLIAAFRQIGDPSVDLVIVGMQNTTVFGKHDPVGAPEPNIKYVGYISDEQLKALYQNAACFLYPSIYEGFGIPPLEAMRYGCPALVGKSAALPEVCADAALYCDPYSQDDIARKLRSLLDSPELRAELKRKGIAHAEQYRWSRSAEMMKAIFETL
MGSDKIHHHHHHMIDELRAMAIFAETIKQGSFRAAAKELKLSPSVVSYQVTQLEKSVGTALIYRSTRKLSLTSEGGVLYQYALNMIQAAQQGLNQVAIEKQELRGTLTLTLPSALIKSEISKKISQFSKLHPFLNFKLFYTDDRQDLIHQGIDLAFRAGSMDDSNLKSKRVGEINRKLVCSYDYWKENIPPISPQDLTTWNWIKLDMLPNHRTLVNSAGEKCDIDFESNISVNNVEAMTQLCINGAGIATPPDYLIEKEIENNALVELLPNWQVESIPLYAVWPSNVFQNSSVKRLLEFLI
MGSDKIHHHHHHMIDIKNTLLLGHRGARGEALENTLSGFEYAQNLQLSGLAGVEFDVQLSRDGQLVVFHDDTLERMCAQQSRLDQLNVSEIQRHRQFGQPIITLLDIASALNTYTYIELEVKTHSRTDYAKLVKALMHDLIDSSLASLPIVLTSFDVALHARLQRSTLLRHIPRGLLIREPELLKQAPNTALQLGCGQLGIHYPLLNHKVIQCCHQYDLPVSAWTVNDIETIKQLIDWQVDVIITDYPSYLLLP

From the DeepSol protein solubility set
